Here are results for one molecule from patent US7186408 (CAMBRIDGE UNIVERSITY TECHNICAL SERVICES, dated 2007).

The target in test [1] is T1, Recombinant mouse CD30-Fc (R&D Systems) (mouse, UniProt Q60846 19-281).
T1 construct: also called moCD30-Fc; not shown: Fc portion of the bought fusion protein
T1 sequence: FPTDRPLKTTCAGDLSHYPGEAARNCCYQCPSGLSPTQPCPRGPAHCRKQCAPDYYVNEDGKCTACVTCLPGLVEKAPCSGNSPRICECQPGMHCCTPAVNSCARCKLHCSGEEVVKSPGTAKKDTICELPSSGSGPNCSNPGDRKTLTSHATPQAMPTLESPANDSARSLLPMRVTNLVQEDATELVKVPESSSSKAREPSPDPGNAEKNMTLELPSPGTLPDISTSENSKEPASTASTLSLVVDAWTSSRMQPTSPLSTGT
Description: Scatchard analysis (LIGAND), 2 ng mouse CD30 on protein A FlashPlate with increasing mouse 125I-CD30L.

In a further test the target is T2, Human CD30 on K562 cells (human, UniProt P28908 19-595).
T2 construct: also called cell surface CD30; cellular receptors
T2 sequence: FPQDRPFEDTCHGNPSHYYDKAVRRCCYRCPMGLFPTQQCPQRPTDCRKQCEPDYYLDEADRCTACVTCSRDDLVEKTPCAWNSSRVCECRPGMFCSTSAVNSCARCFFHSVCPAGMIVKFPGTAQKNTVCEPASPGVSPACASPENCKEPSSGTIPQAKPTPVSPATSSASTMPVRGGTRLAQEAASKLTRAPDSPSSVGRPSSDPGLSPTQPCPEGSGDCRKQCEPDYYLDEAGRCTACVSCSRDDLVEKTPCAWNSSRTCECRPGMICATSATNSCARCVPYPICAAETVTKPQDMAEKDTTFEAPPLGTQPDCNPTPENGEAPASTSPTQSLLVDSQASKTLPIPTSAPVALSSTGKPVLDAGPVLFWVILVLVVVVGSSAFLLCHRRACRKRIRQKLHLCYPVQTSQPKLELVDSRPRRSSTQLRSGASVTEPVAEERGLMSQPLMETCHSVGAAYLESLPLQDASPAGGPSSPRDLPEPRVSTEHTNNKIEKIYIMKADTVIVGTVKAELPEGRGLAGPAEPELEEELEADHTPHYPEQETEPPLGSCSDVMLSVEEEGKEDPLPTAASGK
Description: flow cytometry on K562 cells. For orientation: In flow cytometry, cells or beads pass a laser one at a time.

For test [2], the target named is vCD30-Fc (EV Hampstead vCD30 fused to the Fc fragment of human IgG1, baculovirus AcCD30-Fc, purified from Hi5 … (ectromelia virus, strain Hampstead; …).

B1: Recombinant mouse CD30L (soluble, 6x histidine-tagged, R&D Systems) (ligand, UniProt P32972 68-239, looked up)
chain: QKKDSTPNTTEKAPLKGGNCSEDLFCTLKSTPSKKSWAYLQVSKHLNNTKLSWNEDGTIHGLIYQDGNLIVQFPGLYFIVCQLQFLVQCSNHSVDLTLQLLINSKIKKQTLVTVCESGVQSKNIYQNLSQFLLHYLQVNSTISVRVDNFQYVDTNTFPLDNVLSVFLYSSSD
notes: also called 125I-CD30L; mouse 125I-CD30L
Regarding B1, the Kd in test [1] and in test [2] was 1 nM in each case. Besides, the binding result with Human CD30 on K562 cells is listed as “binds”.
